The series deals with the molecule itself. The series is described as follows: cryo-EM structure.

B1: MBP-tagged truncated mouse TRPM7 (amino acids 1 to 1280) (domain or fragment)
chain: MSQKSWIESTLTKRECVYIIPSSKDPHRCLPGCQICQQLVRCFCGRLVKQHACFTASLAMKYSDVKLGEHFNQAIEEWSVEKHTEQSPTDAYGVINFQGGSHSYRAKYVRLSYDTKPEIILQLLLKEWQMELPKLVISVHGGMQKFELHPRIKQLLGKGLIKAAVTTGAWILTGGVNTGVAKHVGDALKEHASRSSRKICTIGIAPWGVIENRNDLVGRDVVAPYQTLLNPLSKLNVLNNLHSHFILVDDGTVGKYGAEVRLRRELEKTINQQRIHARIGQGVPVVALIFEGGPNVILTVLEYLQESPPVPVVVCEGTGRAADLLAYIHKQTEEGGNLPDAAEPDIISTIKKTFNFGQSEAVHLFQTMMECMKKKELITVFHIGSEDHQDIDVAILTALLKGTNASAFDQLILTLAWDRVDIAKNHVFVYGQQWLVGSLEQAMLDALVMDRVSFVKLLIENGVSMHKFLTIPRLEELYNTKQGPTNPMLFHLIRDVKQGNLPPGYKITLIDIGLVIEYLMGGTYRCTYTRKRFRLIYNSLGGNNRRSGRNTSSSTPQLRKSHETFGNRADKKEKMRHNHFIKTAQPYRPKMDASMEEGKKKRTKDEIVDIDDPETKRFPYPLNELLIWACLMKRQVMARFLWQHGEESMAKALVACKIYRSMAYEAKQSDLVDDTSEELKQYSNDFGQLAVELLEQSFRQDETMAMKLLTYELKNWSNSTCLKLAVSSRLRPFVAHTCTQMLLSDMWMGRLNMRKNSWYKVILSILVPPAILMLEYKTKAEMSHIPQSQDAHQMTMEDSENNFHNITEEIPMEVFKEVKILDSSDGKNEMEIHIKSKKLPITRKFYAFYHAPIVKFWFNTLAYLGFLMLYTFVVLVKMEQLPSVQEWIVIAYIFTYAIEKVREVFMSEAGKISQKIKVWFSDYFNVSDTIAIISFFVGFGLRFGAKWNYINAYDNHVFVAGRLIYCLNIIFWYVRLLDFLAVNQQAGPYVMMIGKMVANMFYIVVIMALVLLSFGVPRKAILYPHEEPSWSLAKDIVFHPYWMIFGEVYAYEIDVCANDSTLPTICGPGTWLTPFLQAVYLFVQYIIMVNLLIAFFNNVYLQVKAISNIVWKYQRYHFIMAYHEKPVLPPPLIILSHIVSLFCCVCKRRKKDKTSDGPKLFLTEEDQKKLHDFEEQCVEMYFDEKDDKFNSGSEERIRVTFERVEQMSIQIKEVGDRVNYIKRSLQSLDSQIGHLQDLSALTVDTLKTLTAQKASEASKVHNEITRELSISKHLAQNLID
One may read the stoichiometry N as the number of molecules, sites or subunits per partner or assembly. Turning to B1, the “stoichiometry N” value stood at 4.

Values taken from publication PMC6126765 (Proceedings of the National Academy of Sciences of the …, 2018).
